According to PMC10085699:
Substitutions are numbered along the chain they refer to.

Assays:
[1] = molecular target: T1, SETX-HD-DE/AA (Homo sapiens, UniProt Q7Z333 1674-2677, D2181A;E2182A); assay: EMSA
T1 sequence: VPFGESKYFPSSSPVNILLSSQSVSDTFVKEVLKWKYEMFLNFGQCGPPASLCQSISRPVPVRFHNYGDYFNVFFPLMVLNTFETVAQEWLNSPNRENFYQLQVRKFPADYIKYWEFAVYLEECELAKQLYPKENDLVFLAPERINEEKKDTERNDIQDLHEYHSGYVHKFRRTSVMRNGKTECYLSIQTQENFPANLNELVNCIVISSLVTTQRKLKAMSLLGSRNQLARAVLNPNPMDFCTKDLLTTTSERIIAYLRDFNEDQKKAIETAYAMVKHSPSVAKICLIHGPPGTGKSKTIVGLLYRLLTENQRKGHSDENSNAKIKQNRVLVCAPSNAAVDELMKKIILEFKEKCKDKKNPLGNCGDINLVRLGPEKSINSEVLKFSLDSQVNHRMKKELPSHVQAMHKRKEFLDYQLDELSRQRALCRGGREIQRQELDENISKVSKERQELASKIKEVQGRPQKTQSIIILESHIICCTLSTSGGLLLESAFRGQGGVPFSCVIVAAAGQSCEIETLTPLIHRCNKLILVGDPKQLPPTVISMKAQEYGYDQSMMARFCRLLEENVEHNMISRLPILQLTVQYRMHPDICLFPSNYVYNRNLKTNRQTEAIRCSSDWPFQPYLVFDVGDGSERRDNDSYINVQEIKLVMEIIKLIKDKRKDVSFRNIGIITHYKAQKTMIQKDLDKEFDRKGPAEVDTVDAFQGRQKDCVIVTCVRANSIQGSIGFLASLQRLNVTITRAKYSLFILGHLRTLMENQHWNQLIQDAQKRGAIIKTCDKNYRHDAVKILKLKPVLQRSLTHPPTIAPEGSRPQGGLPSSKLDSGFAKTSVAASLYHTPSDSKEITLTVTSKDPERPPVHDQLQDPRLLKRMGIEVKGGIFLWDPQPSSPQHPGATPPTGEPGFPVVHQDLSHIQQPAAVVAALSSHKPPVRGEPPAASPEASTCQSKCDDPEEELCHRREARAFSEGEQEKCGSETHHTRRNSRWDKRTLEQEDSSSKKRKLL

[2] = molecular target: T2, SETX-HD-R/H (Homo sapiens, UniProt Q7Z333 1674-2677, R2136H); assay: EMSA
T2 sequence: T1 sequence with R463H, A508D, A509E

B1: ssRNA pRMS678 (61 nt) (ssRNA)
RNA: UUGUCUUCUCAUAAAUUUAAUCCCCGUACGCUUAUACUCCUUUAACUACCCAGUCUUCCCG
B1: binds [1]; binds [2].
